The supplement of paper PMC9876800

Test system: peptide library, one residue held at a place counted from the S/T acceptor
Experiment: relative phosphorylation of the sub-library (ratio to the mean residue at this position); higher = residue favoured
Summary of the method: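 Purified recombinant kinases were reacted in 384-well plates with biotinylated degenerate peptide sub-libraries, each having one residue fixed at one position around a central Ser/Thr. The reaction mix contained 50 μM peptide plus 50 μM ATP spiked with γ-32P-ATP and ran for 90 min under kinase-specific conditions. Relative sub-library phosphorylation, taken from densitometry of phosphorimaged streptavidin membrane spots, is a ratio to the mean residue at that position.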

VRK2, construct: Full length, human, sequence (Q86Y07 whole entry, looked up): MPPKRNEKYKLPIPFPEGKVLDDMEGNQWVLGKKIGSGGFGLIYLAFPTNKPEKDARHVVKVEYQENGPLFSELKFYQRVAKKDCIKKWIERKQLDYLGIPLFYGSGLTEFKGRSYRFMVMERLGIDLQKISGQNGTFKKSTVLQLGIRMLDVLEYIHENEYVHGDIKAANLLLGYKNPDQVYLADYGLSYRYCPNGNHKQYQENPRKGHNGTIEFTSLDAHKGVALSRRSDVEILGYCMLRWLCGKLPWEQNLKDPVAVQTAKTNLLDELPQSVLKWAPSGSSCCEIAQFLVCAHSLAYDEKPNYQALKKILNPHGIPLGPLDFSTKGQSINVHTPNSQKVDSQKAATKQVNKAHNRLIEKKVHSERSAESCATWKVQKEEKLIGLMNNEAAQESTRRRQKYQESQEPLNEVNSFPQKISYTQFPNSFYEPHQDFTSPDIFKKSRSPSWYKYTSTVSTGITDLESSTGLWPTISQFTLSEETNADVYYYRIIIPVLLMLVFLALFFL
TAOK3, construct: Full length with a 14aa C-terminal extension from Gateway cloning, human, sequence (Q9H2K8 whole entry, looked up): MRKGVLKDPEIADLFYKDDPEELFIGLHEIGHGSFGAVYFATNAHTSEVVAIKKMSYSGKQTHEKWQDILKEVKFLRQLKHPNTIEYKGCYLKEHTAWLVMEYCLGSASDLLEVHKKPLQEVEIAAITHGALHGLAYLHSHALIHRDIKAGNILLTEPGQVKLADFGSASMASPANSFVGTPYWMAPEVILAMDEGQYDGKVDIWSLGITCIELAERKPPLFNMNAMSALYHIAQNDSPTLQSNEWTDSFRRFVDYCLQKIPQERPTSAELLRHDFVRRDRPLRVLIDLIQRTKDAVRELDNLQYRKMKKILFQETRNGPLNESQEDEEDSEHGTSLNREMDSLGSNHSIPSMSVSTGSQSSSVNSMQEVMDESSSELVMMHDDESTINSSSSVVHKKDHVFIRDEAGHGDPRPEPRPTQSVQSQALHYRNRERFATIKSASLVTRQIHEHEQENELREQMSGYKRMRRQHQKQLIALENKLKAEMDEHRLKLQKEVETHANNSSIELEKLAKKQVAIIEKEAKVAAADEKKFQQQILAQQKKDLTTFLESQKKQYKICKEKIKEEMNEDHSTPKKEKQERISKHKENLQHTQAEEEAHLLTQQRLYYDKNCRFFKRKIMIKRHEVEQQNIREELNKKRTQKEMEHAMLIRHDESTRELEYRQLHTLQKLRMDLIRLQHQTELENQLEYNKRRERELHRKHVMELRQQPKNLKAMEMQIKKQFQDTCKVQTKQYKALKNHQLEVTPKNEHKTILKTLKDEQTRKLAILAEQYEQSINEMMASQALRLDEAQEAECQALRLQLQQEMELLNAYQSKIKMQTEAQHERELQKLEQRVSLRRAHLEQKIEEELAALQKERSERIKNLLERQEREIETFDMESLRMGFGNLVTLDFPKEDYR
TLK2, construct: aa388-end, human, sequence (Q86UE8 388-772, looked up): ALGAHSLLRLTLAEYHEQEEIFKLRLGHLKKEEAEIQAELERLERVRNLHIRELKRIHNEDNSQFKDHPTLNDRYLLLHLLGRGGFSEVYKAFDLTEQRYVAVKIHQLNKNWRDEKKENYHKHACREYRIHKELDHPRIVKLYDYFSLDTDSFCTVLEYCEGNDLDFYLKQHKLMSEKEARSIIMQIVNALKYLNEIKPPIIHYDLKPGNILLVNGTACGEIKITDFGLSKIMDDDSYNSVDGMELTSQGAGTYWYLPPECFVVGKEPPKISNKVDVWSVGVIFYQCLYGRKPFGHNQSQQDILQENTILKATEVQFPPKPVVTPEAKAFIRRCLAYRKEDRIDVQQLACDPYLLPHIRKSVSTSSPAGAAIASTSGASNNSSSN

PRKDC, construct: Full length, human (from UniProt P78527)
relative phosphorylation
Settings | at +1 | at +2 | at +3 | at +4 | at -1 | at -2 | at -3 | at -4 | at -5
A fixed | 0.244 | 1.11 | 0.987 | 0.798 | 1.14 | 1.28 | 1.11 | 0.908 | 1.01
D fixed | 0.156 | 3.46 | 1.28 | 1.49 | 0.887 | 0.607 | 0.595 | 0.795 | 0.728
E fixed | 0.145 | 2.46 | 1.6 | 1.57 | 1.08 | 0.733 | 0.681 | 0.895 | 0.773
F fixed | 1.31 | 0.561 | 1.15 | 1.13 | 1.22 | 1.25 | 1.13 | 1.02 | 1.15
G fixed | 0.222 | 0.753 | 0.712 | 0.971 | 2.01 | 1.28 | 1.11 | 1.35 | 1.13
H fixed | 0.179 | 0.678 | 0.721 | 0.931 | 0.977 | 1.08 | 1.05 | 1.06 | 1.07
I fixed | 0.705 | 0.41 | 0.935 | 0.728 | 0.352 | 0.969 | 1.08 | 1.07 | 1.03
K fixed | 0.166 | 0.556 | 0.627 | 0.625 | 0.345 | 0.776 | 0.796 | 0.961 | 1.2
L fixed | 2.21 | 0.558 | 0.943 | 0.715 | 0.87 | 0.831 | 1 | 0.953 | 0.957
M fixed | 1.25 | 0.688 | 1.27 | 1.09 | 1.07 | 1.06 | 1.16 | 1.02 | 1.06
N fixed | 0.407 | 0.879 | 0.7 | 0.902 | 1.25 | 1.25 | 0.829 | 0.829 | 0.879
P fixed | 0.638 | 1.2 | 0.943 | 0.825 | 0.725 | 0.937 | 1.02 | 0.907 | 0.944
Q fixed | 7.43 | 1 | 0.818 | 0.869 | 1.2 | 0.99 | 0.891 | 0.85 | 0.656
R fixed | 0.362 | 0.725 | 0.623 | 0.88 | 0.686 | 1.13 | 1.12 | 1.17 | 1.21
V fixed | 0.371 | 0.609 | 1.02 | 0.653 | 0.317 | 0.852 | 0.967 | 0.812 | 0.979
W fixed | 0.309 | 0.656 | 1.36 | 1.6 | 0.835 | 0.916 | 1.16 | 1.18 | 1.11
Y fixed | 0.892 | 0.702 | 1.31 | 1.22 | 2.04 | 1.06 | 1.3 | 1.22 | 1.11
pThr fixed | 0.228 | 1.74 | 1.81 | 1.94 | 0.33 | 0.77 | 0.764 | 0.76 | 0.72
pTyr fixed | 0.194 | 0.795 | 1.87 | 1.87 | 0.926 | 0.966 | 0.829 | 0.692 | 0.654

TAOK3, construct: Full length with a 14aa C-terminal extension from Gateway cloning, human (from UniProt Q9H2K8)
relative phosphorylation
Settings | at +1 | at +2 | at +3 | at +4 | at -1 | at -2 | at -3 | at -4 | at -5
A fixed | 0.522 | 0.851 | 0.743 | 0.866 | 0.788 | 1.15 | 0.775 | 1.01 | 1.16
D fixed | 0.371 | 0.801 | 0.592 | 0.65 | 0.99 | 1.03 | 0.879 | 1.47 | 1.59
E fixed | 0.343 | 0.54 | 0.547 | 0.658 | 0.546 | 0.718 | 0.916 | 1.54 | 1.36
F fixed | 1.34 | 0.424 | 0.68 | 0.771 | 0.709 | 1.35 | 0.543 | 0.663 | 0.81
G fixed | 0.605 | 0.943 | 1.38 | 1.11 | 2.03 | 1.43 | 1.4 | 1.27 | 1.17
H fixed | 0.973 | 1.21 | 1.19 | 1.18 | 1.28 | 0.92 | 0.95 | 1.04 | 1.09
I fixed | 1.52 | 0.593 | 0.578 | 0.859 | 0.3 | 0.508 | 0.416 | 0.497 | 0.596
K fixed | 0.647 | 2.32 | 2.11 | 1.76 | 1.54 | 0.836 | 2.45 | 1.15 | 1.35
L fixed | 1.63 | 0.507 | 0.707 | 0.681 | 0.717 | 0.526 | 0.445 | 0.536 | 0.627
M fixed | 1.52 | 0.612 | 0.606 | 0.718 | 0.911 | 0.805 | 0.566 | 0.682 | 0.629
N fixed | 0.595 | 1.73 | 1.08 | 0.891 | 1.61 | 1.15 | 1.28 | 1.42 | 1.23
P fixed | 0.551 | 1.09 | 1.14 | 0.945 | 0.707 | 1.17 | 1.23 | 1.38 | 0.984
Q fixed | 0.685 | 0.941 | 0.987 | 1.04 | 1.08 | 0.856 | 1.12 | 1.12 | 0.961
R fixed | 0.583 | 2.5 | 2.29 | 1.62 | 1.37 | 0.959 | 1.73 | 1.11 | 1.13
V fixed | 1.05 | 0.659 | 0.558 | 0.753 | 0.373 | 0.541 | 0.459 | 0.562 | 0.634
W fixed | 2.79 | 0.578 | 0.971 | 1.19 | 0.807 | 0.932 | 0.832 | 0.819 | 0.92
Y fixed | 1.28 | 0.704 | 0.854 | 1.31 | 1.24 | 2.12 | 1 | 0.726 | 0.781
pThr fixed | 0.887 | 0.729 | 0.858 | 0.782 | 0.588 | 1.11 | 1.23 | 1.49 | 1.36
pTyr fixed | 0.719 | 0.757 | 0.752 | 0.848 | 2.28 | 1.3 | 1.18 | 1.33 | 1.47

TLK2, construct: aa388-end, human (from UniProt Q86UE8)
relative phosphorylation
Settings | at +1 | at +2 | at +3 | at +4 | at -1 | at -2 | at -3 | at -4 | at -5
A fixed | 0.501 | 0.95 | 1.3 | 1.23 | 1.13 | 1.14 | 1.07 | 1.1 | 1.22
D fixed | 0.281 | 1.07 | 1.01 | 1.06 | 0.949 | 2.24 | 2 | 1.67 | 1.91
E fixed | 0.329 | 0.512 | 1.33 | 0.879 | 0.751 | 3.21 | 1.46 | 1.68 | 1.45
F fixed | 0.533 | 1.32 | 1.19 | 1.26 | 1.04 | 0.553 | 0.674 | 0.878 | 0.801
G fixed | 0.36 | 1.69 | 1.69 | 1.24 | 0.72 | 1.69 | 1.42 | 1.27 | 1.19
H fixed | 0.799 | 1.45 | 0.932 | 0.899 | 1.6 | 1.05 | 0.979 | 1.07 | 1.05
I fixed | 0.995 | 0.768 | 0.583 | 0.843 | 0.542 | 0.435 | 0.531 | 0.668 | 0.621
K fixed | 0.624 | 0.451 | 0.52 | 0.603 | 0.95 | 0.502 | 0.702 | 0.703 | 0.879
L fixed | 1.34 | 0.873 | 0.654 | 0.867 | 0.61 | 0.418 | 0.637 | 0.678 | 0.663
M fixed | 2.11 | 1.27 | 0.823 | 0.913 | 0.862 | 0.592 | 0.77 | 0.857 | 0.737
N fixed | 2.41 | 0.671 | 0.682 | 0.692 | 1.29 | 1.22 | 1.26 | 1.19 | 1.08
P fixed | 0.225 | 1.03 | 1.66 | 1.79 | 0.634 | 0.77 | 1.36 | 1.17 | 1
Q fixed | 2.67 | 1.19 | 0.765 | 0.782 | 1.23 | 1.06 | 0.972 | 0.852 | 0.865
R fixed | 1.53 | 0.482 | 0.483 | 0.506 | 0.827 | 0.499 | 0.743 | 0.674 | 0.814
V fixed | 1.06 | 0.675 | 0.814 | 0.944 | 0.807 | 0.495 | 0.584 | 0.684 | 0.72
W fixed | 0.686 | 1.62 | 1.42 | 1.35 | 1.58 | 0.5 | 0.953 | 1.06 | 1.1
Y fixed | 0.543 | 0.974 | 1.13 | 1.13 | 1.48 | 0.638 | 0.879 | 0.803 | 0.894
pThr fixed | 0.552 | 0.633 | 1.09 | 1.41 | 0.434 | 0.883 | 1.29 | 1.31 | 1.31
pTyr fixed | 0.65 | 1.52 | 1.94 | 1.76 | 1.4 | 2.55 | 1.35 | 1.36 | 1.4

VRK2, construct: Full length, human (from UniProt Q86Y07)
relative phosphorylation
Settings | at +1 | at +2 | at +3 | at +4 | at -1 | at -2 | at -3 | at -4 | at -5
A fixed | 0.906 | 0.925 | 0.998 | 1.07 | 0.943 | 1 | 1.06 | 1.12 | 1.08
D fixed | 0.579 | 0.622 | 0.675 | 0.977 | 0.788 | 0.836 | 0.812 | 0.845 | 0.97
E fixed | 0.659 | 0.575 | 0.629 | 0.791 | 0.67 | 0.804 | 0.829 | 0.917 | 0.862
F fixed | 0.883 | 1.23 | 1.05 | 1.04 | 0.86 | 0.978 | 0.971 | 0.957 | 0.974
G fixed | 1.02 | 1.11 | 1.15 | 1.17 | 0.959 | 1.58 | 1.23 | 1.24 | 1.15
H fixed | 0.842 | 0.985 | 1.28 | 1.14 | 1.39 | 1.04 | 1.12 | 1.04 | 1.17
I fixed | 1.23 | 1.34 | 0.907 | 0.881 | 1.03 | 0.824 | 0.927 | 0.875 | 0.866
K fixed | 0.949 | 0.924 | 0.875 | 0.887 | 1.04 | 0.919 | 0.881 | 0.945 | 0.979
L fixed | 0.796 | 1.33 | 0.896 | 0.937 | 1.15 | 1.01 | 0.933 | 0.875 | 0.866
M fixed | 1.01 | 1.27 | 0.872 | 0.954 | 1.02 | 1.16 | 0.98 | 0.96 | 0.885
N fixed | 0.759 | 0.726 | 1.05 | 0.979 | 0.956 | 0.966 | 0.985 | 0.917 | 0.906
P fixed | 1.15 | 0.703 | 0.759 | 1.03 | 1.1 | 1.08 | 1.27 | 1.22 | 1.16
Q fixed | 1.13 | 0.873 | 0.875 | 0.905 | 0.914 | 0.969 | 0.878 | 0.887 | 0.922
R fixed | 1.57 | 0.836 | 1.37 | 0.937 | 1.06 | 1.06 | 1.06 | 1.04 | 1.05
V fixed | 1.53 | 1.07 | 0.935 | 0.912 | 1.22 | 0.877 | 0.936 | 0.996 | 0.974
W fixed | 1.04 | 1.3 | 1.6 | 1.32 | 0.876 | 0.964 | 1.06 | 1.11 | 1.07
Y fixed | 0.948 | 1.17 | 1.09 | 1.07 | 1.03 | 0.935 | 1.06 | 1.06 | 1.11
pThr fixed | 0.648 | 0.686 | 0.733 | 1.08 | 0.83 | 0.792 | 0.923 | 1 | 1.01
pTyr fixed | 0.826 | 0.883 | 0.914 | 1.4 | 0.861 | 0.8 | 0.982 | 1.02 | 0.981
